Measured values as given in patent US20160279215A1, “NOVEL PEPTIDES AND COMBINATION OF PEPTIDES FOR USE IN IMMUNOTHERAPY AGAINST VARIOUS TUMORS” (immatics biotechnologies GmbH, priority 2015, published 2016).

These binders were tested against T1, HLA-A*02:01 (human) (assay: UV ligand-exchange ELISA (anti-b2m); ++++ = exchange yield >=75%).
T1 construct: MHC monomers captured on streptavidin plates; the UV-sensitive peptide is cleaved and exchanged with the test peptide; also called peptide-receptive MHC molecules; MHC class I
Excerpt: (§1) Candidate peptides for T cell based therapies according to the present invention were further tested for their MHC binding capacity (affinity). The individual peptide-MHC complexes were produced by UV-ligand exchange, where a UV-sensitive peptide is cleaved upon UV-irradiation, and exchanged with the peptide of interest as analyzed. Only peptide candidates that can effectively bind and stabilize the peptide-receptive MHC molecules prevent dissociation of the MHC complexes. To determine the yield of the exchange reaction, an ELISA was performed based on the detection of the light chain (β2m) of stabilized MHC complexes. The assay was performed as generally described in Rodenko et al. (Rodenko et al., 2006).
(§2) 96 well MAXISorp plates (NUNC) were coated over night with 2 ug/ml streptavidin in PBS at room temperature, washed 4× and blocked for 1 h at 37° C. in 2% BSA containing blocking buffer. Refolded HLA-A*02:01/MLA-001 monomers served as standards, covering the range of 15-500 ng/ml. Peptide-MHC monomers of the UV-exchange reaction were diluted 100 fold in blocking buffer. Samples were incubated for 1 h at 37° C., washed four times, incubated with 2 ug/ml HRP conjugated anti-β2m for 1 h at 37° C., washed again and detected with TMB solution that is stopped with […]. Absorption was measured at 450 nm. Candidate peptides that show a high exchange yield (preferably higher than 50%, most preferred higher than 75%) are generally preferred for a generation and production of antibodies or fragments thereof, and/or T cell receptors or fragments thereof, as they show sufficient avidity to the MHC molecules and prevent dissociation of the MHC complexes.

peptide exchange yield | Binder
≥ 75% | SLVSWQLLL
≥ 75% | RLFEEVLGV
≥ 75% | VLLNEILEQV
≥ 75% | GLLDCPIFL
≥ 75% | GLDAFRIFL
≥ 75% | FLNAIETAL
≥ 75% | FLLEREQLL
≥ 75% | GLLPSAESIKL
≥ 75% | KLQEKIQEL
≥ 75% | NLLDENVCL

What follows are binders tested against T1, HLA-A*02:01 (assay: UV ligand-exchange ELISA (anti-b2m); + = exchange yield >=10%).
Excerpt: as §1, §2

peptide exchange yield | Binder
10 to 20% | SEMEELPSV
10 to 20% | QTAPEEAFIKL
10 to 20% | AQHLSTLLL
10 to 20% | GPGIFPPPPPQP
